Data published in paper PMC2114503.
Where two headings read alike, the source gives them in different places.

Assays:
Assay in all cases: co-sedimentation
[1] = target: rabbit skeletal muscle actin (rabbit) (UniProt P68135)
[2] = target: rabbit skeletal muscle actin (rabbit) (UniProt P68135); remark: listed apart in the source
[3] = target: rabbit skeletal muscle actin (rabbit) (UniProt P68135); remark: listed apart in the source
[4] = target: rabbit skeletal muscle actin (rabbit) (UniProt P68135); settings: scale: molecules of actin per molecule of the 30,000-D protein
[5] = target: rabbit skeletal muscle actin (rabbit) (UniProt P68135); remark: listed apart in the source

fraction of the 30,000-D protein co-sedimenting with actin [1]: 29%
fraction of the 30,000-D protein co-sedimenting with actin [2]: 73%
fraction of the 30,000-D protein co-sedimenting with actin [3]: 14%
stoichiometry N [4]: 10.3
fraction of the 30,000-D protein co-sedimenting with actin [5]: 99%
stoichiometry N ([5]; scale: molecules of actin per molecule of the 30,000-D protein): 9.5
Substance: Dictyostelium discoideum 30,000-D actin-binding protein (natural protein)
